The results in this text go back to paper PMC11367481 (eBioMedicine, 2024).

The assay addresses ACE2-Fc, recombinant protein (Sino Biological 10108-H02H) (human, UniProt Q9BYF1). Put plainly: BLI.

B1: BTN3A2-L-His, recombinant protein (Sino Biological 13515-H08H) (natural protein)
chain: not shown
With B1, the dissociation constant (Kd) amounted to 92.7 ± 0.359 nM.
